Experimental data from CN110872347A (TIANJIN TIMMUNE BIOTECH INC, dated 2020).

B1: 融合蛋白M3-D9-Fc (Fc fusion, not shown: a dimerising Fc or GST)
chain: VQLVETGGGLVQPGGSLRLSCAASGFTFSDYAIQWVRQAPGKGLGRVSYINSGGDTTYYADSVKGRFSIARDNAKNTVYLQMNSLKPEDTAVYYCYAGGYWGQGTQVTVSS
B2: 融合蛋白M3-E7-Fc (Fc fusion, not shown: a dimerising Fc or GST)
chain: VQLVASGGGLVPPGGSLRLSCAASGRTFNVDAMAWFRQTRGKEREFVAAISRSGGSTYYADSVKGRFSISKDNAKNTMYLQMNSLKPEDTAIYYCAAAIYWRGSYYTEGNYDYWGQRTQVTVSS

Biological target: HLA-A2/…抗原复合物 (human)
Assay: SPR, Biacore T200, antigen on SA chip, Fc fusion as analyte 1-20 nM, Bivalent Analyte model

Binder	Kd	koff	kon
B1	25 nM	0.0171 s⁻¹	678000 M⁻¹ s⁻¹
B2	9 nM	0.0309 s⁻¹	3.43e+06 M⁻¹ s⁻¹
